Target: STAT3 (UniProt P40763)
Test: co-immunoprecipitation, Flag/Myc tags, Western blot
Conditions: reference: wild-type PLSCR1-2Flag; sites Y69,Y74

“PLSCR1 (from UniProt O15162) PLSCR1-Y69,74F-2Flag” was tested, and the “binding against the reference” value was “weaker”.
